Experimental data: publication PMC10065799, “High-throughput profiling of sequence recognition by tyrosine kinases and SH2 domains using bacterial peptide display” (eLife, 2023)

Biological target: human c-Src kinase domain (residues 260-528) (human) (UniProt P12931)

Question: With Ac-GPDECIYDMFPFKKKG-NH2 [Src Consensus peptide Ac-…-NH2] as the binder, how does the KM (μM) of phosphorylation, Michaelis-Menten analysis, ADP-Quest assay read?
Answer: Its KM (μM) of phosphorylation, Michaelis-Menten analysis, ADP-Quest assay is 196 µM.
